In paper PMC12024540, “Peptide-Based Regulation of TNF-α-Mediated Cytotoxicity” (Biomolecules, 2025):
Where no end group is shown, it is not given here.

B1: OB6 peptide (peptide)
peptide: NPQAEGQLQWLNRRA
notes: 15-residue stretch of human TNF predicted with Rosetta Peptiderive from the TNF-TNFR2 complex; Synthesised on Rink amide resin, so probably with a C-terminal amide (stated only for OB5); source: synthetic peptide (SPPS, Rink amide resin, HPLC purified)
B2: OB7 peptide (peptide)
peptide: VLLTHTISRIAVSYQTKVNLL
notes: Synthesised on Rink amide resin, so probably with a C-terminal amide (stated only for OB5); 21 residues as printed; source: synthetic peptide (SPPS, Rink amide resin, HPLC purified)
B3: OB5 peptide (peptide)
peptide: NHQVEEQLEWLSQRA-NH2
notes: 15-residue stretch of mouse TNF-α predicted with Rosetta Peptiderive from the mouse TNF-α-human TNFR1 complex; source: synthetic peptide (SPPS, Rink amide resin, HPLC purified)

Legend:
[1] = molecular target: T1, Human TNFR2 (soluble) recombinant protein (human, UniProt P20333 33-205, fluorescent label from the Monolith Protein Labeling Kit RED-NHS 2nd Generation (labelled target in MST)); experiment: MST; labelled TNFR1 or TNFR2 (RED-NHS 2nd Generation) at 20 nM, peptide titrated in 16 serial dilutions, PBS, 20 min incubation in the dark, Monolith NT.115 Pico, medium MST power; details: both partners purified
T1 construct: human TNF receptor 2, soluble recombinant form; also called TNF receptor 2; p80; source: bought: PeproTech
T1 sequence: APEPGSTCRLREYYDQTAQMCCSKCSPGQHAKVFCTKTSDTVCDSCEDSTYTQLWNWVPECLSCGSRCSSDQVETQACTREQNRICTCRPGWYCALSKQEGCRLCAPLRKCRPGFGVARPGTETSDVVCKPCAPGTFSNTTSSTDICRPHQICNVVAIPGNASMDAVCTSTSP

[2] = molecular target: T2, Human TNFR1 (soluble) recombinant protein (human, UniProt P19438 42-181, fluorescent label from the Monolith Protein Labeling Kit RED-NHS 2nd Generation (labelled target in MST)); experiment: as above; details: both partners purified
T2 construct: human TNF receptor 1, soluble recombinant form; also called TNF receptor 1; sTNFR1; source: bought: PeproTech
T2 sequence: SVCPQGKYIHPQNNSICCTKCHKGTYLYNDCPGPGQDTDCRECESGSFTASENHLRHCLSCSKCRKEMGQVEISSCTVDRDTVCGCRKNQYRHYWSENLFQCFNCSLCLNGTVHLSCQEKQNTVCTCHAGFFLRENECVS

Kd [1]	Kd [2]	Binder
3.9 µM	–	B1
–	8.6 µM	B2
–	0.204 µM	B3
